Test results from the supplement of paper PMC10567573.

B1: TRIM9 (parent)
chain: PRNSCITCPQCHRSLILDDRGLRG

Variants of: B1
Experiment: protein stability index of a GFP-peptide fusion (GPS, HEK-293T) (PSI 1-6); higher = more stable
Conditions: c terminus: a fixed tail appended
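Note: lentivirally expressed fusions sorted by FACS into six bins by GFP to DsRed ratio, PSI derived from sequencing read proportions per bin multiplied by bin number.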

Row | Variant | protein stability index
1 | PRWSCITCPQCHRSLILDDRGLRG | 1.62
2 | PRNSCIKCPQCHRSLILDDRGLRG | 2.25
3 | SRNSCITCPQCHRSLILDDRGLRG | 2.61
4 | PRNSCITCPQCHRSLILDDYGLRG | 2.35
5 | PPNSCITCPQCHRSLILDDRGLRG | 2.92
6 | PRNSCITCPQCHRSLINDDRGLRG | 1.79
7 | PRNSCITCPQCHRSLILDDRELRG | 2.93
8 | PRNSCITCPQCHRSLILLDRGLRG | 1.53
9 | PRNSCITCPQKHRSLILDDRGLRG | 2.62
10 | PFNSCITCPQCHRSLILDDRGLRG | 1.89
11 | PRNSCITCPQCHRSLILDDRGLLG | 2.48
12 | PRNSCITCPQCHRSLILDDRGIRG | 2.36
13 | PRNSCITCPQCHRSLILDDRGLPG | 2.42
14 | PRNSCITCPQCHRSLILNDRGLRG | 1.7
15 | PKNSCITCPQCHRSLILDDRGLRG | 2.19
16 | PRNSCITCPQCHRSLILDDRGLQG | 2.41
17 | PRNSCITCPQCHRSLIMDDRGLRG | 2.21
18 | PRYSCITCPQCHRSLILDDRGLRG | 1.85
19 | ARNSCITCPQCHRSLILDDRGLRG | 1.82
20 | PNNSCITCPQCHRSLILDDRGLRG | 2.44
21 | PRNSCITCPQCKRSLILDDRGLRG | 2.69
22 | PRNSCITCPQCHRSLILDDRGLRM | 2.17
23 | PRNSCITCPQCHRSLALDDRGLRG | 1.94
24 | PRNSCITCPQCHRPLILDDRGLRG | 2.52

Row | Variant | protein stability index
25 | PRNSCITCPQCHCSLILDDRGLRG | 4.16
26 | PRNSCITCPQCHRSVILDDRGLRG | 2.24
27 | PRNSCITCPQCHRSLILDDRGLGG | 2.48
28 | PRGSCITCPQCHRSLILDDRGLRG | 1.52
29 | PRNSCITPPQCHRSLILDDRGLRG | 3.14
30 | PRNSCITCPQCHRSLILDDRGRRG | 2.84
31 | PRNSCITCPQCHRSLILDARGLRG | 2.46
32 | PRNSCITCPQCHRSLILDSRGLRG | 2.11
33 | PRPSCITCPQCHRSLILDDRGLRG | 1.49
34 | PRNSCITCFQCHRSLILDDRGLRG | 1.54
35 | PRNSCITCPQCHWSLILDDRGLRG | 2.42
36 | PRNSCITTPQCHRSLILDDRGLRG | 3.33
37 | PRNSCITCPQFHRSLILDDRGLRG | 2.38
38 | PRNSCITCPQCHRSQILDDRGLRG | 2.79
39 | PTNSCITCPQCHRSLILDDRGLRG | 2.56
40 | PRNSCITHPQCHRSLILDDRGLRG | 2.29
41 | PWNSCITCPQCHRSLILDDRGLRG | 2.14
42 | PRNSSITCPQCHRSLILDDRGLRG | 2.42
43 | PRNSCIECPQCHRSLILDDRGLRG | 1.99
44 | PRNSCITCPQCHRILILDDRGLRG | 2.93
45 | PRNSCITCPQCPRSLILDDRGLRG | 2.52
46 | PRNSCITCPQCHRSGILDDRGLRG | 1.64
47 | PRNSCITCPQEHRSLILDDRGLRG | 2.86
48 | PRNSCITCPQCHRSLILDDWGLRG | 1.44

Row | Variant | protein stability index
49 | PRNSCITCPQCHRSLILDDRGWRG | 2.54
50 | PRNSCINCPQCHRSLILDDRGLRG | 2.04
51 | PRNSCITCPQCHRSLHLDDRGLRG | 1.97
52 | LRNSCITCPQCHRSLILDDRGLRG | 2.29
53 | PRNSCITCPECHRSLILDDRGLRG | 1.53
54 | PRNSCITCPQCHRSLILDDRGNRG | 2.34
55 | PRCSCITCPQCHRSLILDDRGLRG | 1.8
56 | PRNSCITCPQCHRQLILDDRGLRG | 2
57 | PRNSCITCPQCHRSLILDDRCLRG | 2.52
58 | PRNSCITCMQCHRSLILDDRGLRG | 1.45
59 | PRNSCITCPQCHRSLILDDRGLRN | 1.86
60 | PRNSCIPCPQCHRSLILDDRGLRG | 1.72
61 | PRNSCITCPQCHRSLILDDRGLEG | 3.21
62 | PRNSCITCPQCHRSLILEDRGLRG | 1.71
63 | PRNSCITCPHCHRSLILDDRGLRG | 2.62
64 | PRNSCITCPQCHRSLISDDRGLRG | 2.15
65 | PRNSCITCPQCHRSLILDCRGLRG | 2.6
66 | PRNSCITRPQCHRSLILDDRGLRG | 2.47
67 | PRNSCITCPQCCRSLILDDRGLRG | 1.6
68 | PRNSCITCPQCHRSLILDDRGLRS | 2.35
69 | PRNSCIGCPQCHRSLILDDRGLRG | 2.4
70 | PRNVCITCPQCHRSLILDDRGLRG | 2.27
71 | PRNSCITCPQCHRSLILDDTGLRG | 3.07
72 | PRNSCITCPQCHRSLILDDRKLRG | 2.52

Row | Variant | protein stability index
73 | PRNSCITCEQCHRSLILDDRGLRG | 1
74 | PRNSCISCPQCHRSLILDDRGLRG | 2.48
75 | PRNSCITCPQCHRSLILDDRGHRG | 2.49
76 | PRNSCITCPQCHRSLILQDRGLRG | 1.96
77 | PRNSCITCPQCHRCLILDDRGLRG | 2.92
78 | PRNSCITCGQCHRSLILDDRGLRG | 1.72
79 | PRNSCITEPQCHRSLILDDRGLRG | 3.18
80 | PRNSCITCKQCHRSLILDDRGLRG | 2.18
81 | PRNSCITCPQCWRSLILDDRGLRG | 2.07
82 | PRNSCITCPQCHRSLILDDRGKRG | 2.46
83 | PRNSCITCPQCHRSLIWDDRGLRG | 1.56
84 | PRNNCITCPQCHRSLILDDRGLRG | 1.8
85 | PRNQCITCPQCHRSLILDDRGLRG | 1.85
86 | PRNSCITCPQCHRSLILDDRGLKG | 2.2
87 | PRNSCITCHQCHRSLILDDRGLRG | 1.51
88 | PRNSCITCPQCHRSLILDDRGLMG | 1.67
89 | PRNSCITCPQCHRSLILDFRGLRG | 1.72
90 | PRNSCITCPQCFRSLILDDRGLRG | 2.2
91 | PRNWCITCPQCHRSLILDDRGLRG | 1.71
92 | PRNSCITSPQCHRSLILDDRGLRG | 3.15
93 | PRNSNITCPQCHRSLILDDRGLRG | 1.99
94 | PRNSCITCPQCHGSLILDDRGLRG | 2.37
95 | PRNSIITCPQCHRSLILDDRGLRG | 2.34
96 | PRNSCITCPQCHRSLILDDGGLRG | 2.19

Row | Variant | protein stability index
97 | PRNSCITCPQCHRSSILDDRGLRG | 2.19
98 | RRNSCITCPQCHRSLILDDRGLRG | 2.28
99 | PRNKCITCPQCHRSLILDDRGLRG | 1.65
100 | PRNSCITCPQCHRSLITDDRGLRG | 2.08
101 | PRASCITCPQCHRSLILDDRGLRG | 2.36
102 | PRNSCITCPQCHRYLILDDRGLRG | 2.66
103 | PRNSCITQPQCHRSLILDDRGLRG | 2.16
104 | PRNSCITCPQCHRSLILDDRGLNG | 2.56
105 | PRNSCITCPQCHRSLILDTRGLRG | 2.42
106 | PRNSCITCPQCHRSPILDDRGLRG | 2.77
107 | PRNSCITCPQCHMSLILDDRGLRG | 1.77
108 | PRNSCITCPYCHRSLILDDRGLRG | 3.29
109 | PRNSCITCPQCHRSLILDHRGLRG | 1.9
110 | PRNSCIDCPQCHRSLILDDRGLRG | 1.81
111 | PRNSCITGPQCHRSLILDDRGLRG | 2.34
112 | PRNSCITCPQCHRSLILHDRGLRG | 2.03
113 | PRNSCITCPTCHRSLILDDRGLRG | 2.52
114 | PRNSCITCPQCHRSLILDDRGQRG | 3.69
115 | PRNSTITCPQCHRSLILDDRGLRG | 2.02
116 | PRNSCITWPQCHRSLILDDRGLRG | 2.89
117 | PRNSCITCPQCHQSLILDDRGLRG | 2.63
118 | PRNSCITCPQCQRSLILDDRGLRG | 1.96
119 | PRNSCITCPQCHRSLTLDDRGLRG | 1.99
120 | PRNSCITCPQCHRFLILDDRGLRG | 1.91

Row | Variant | protein stability index
121 | PRNSCITCPDCHRSLILDDRGLRG | 2.49
122 | PRNSCIWCPQCHRSLILDDRGLRG | 2
123 | PRNSCITCPQCHFSLILDDRGLRG | 2.09
124 | HRNSCITCPQCHRSLILDDRGLRG | 2.47
125 | PRNSCITCPQCHRSLYLDDRGLRG | 2.58
126 | PRNSCITCPQCHRSLIVDDRGLRG | 2.19
127 | PRNSCIYCPQCHRSLILDDRGLRG | 2.33
128 | PRNSCIICPQCHRSLILDDRGLRG | 2.16
129 | PRNSCITCRQCHRSLILDDRGLRG | 2.58
130 | PRNSCQTCPQCHRSLILDDRGLRG | 2.16
131 | PRNSCITCPMCHRSLILDDRGLRG | 2.04
132 | PRNSCITCPQCHRSLILDDRGLRF | 2.34
133 | PRNSCITCVQCHRSLILDDRGLRG | 2.67
134 | PRNSCITCPGCHRSLILDDRGLRG | 4.38
135 | PRNSCITCPQCHRSLIFDDRGLRG | 2.44
136 | PRNSCITCPQCHRSLILDDCGLRG | 2.39
137 | PRTSCITCPQCHRSLILDDRGLRG | 1.78
138 | PRNSCITCPQCHRSLILVDRGLRG | 1.85
139 | PRNSCITCPQCHRSLILYDRGLRG | 2.36
140 | PRNTCITCPQCHRSLILDDRGLRG | 1.73
141 | PRNSCITCPQCHRSLILDDPGLRG | 2.6
142 | PRNSCITCPQCHRSLILDDNGLRG | 2.05
143 | PRNSCIRCPQCHRSLILDDRGLRG | 1.98
144 | PRNLCITCPQCHRSLILDDRGLRG | 2.37

Row | Variant | protein stability index
145 | PRNSCITMPQCHRSLILDDRGLRG | 2.62
146 | PRNSCITCSQCHRSLILDDRGLRG | 2.16
147 | PRNSCITCPQCHRSLILDDRGLRV | 2.32
148 | PRNSCITCPQYHRSLILDDRGLRG | 2.11
149 | PRNSCITCPQCHHSLILDDRGLRG | 2.59
150 | PRNSCITCPQCHRSLILDDRWLRG | 2.06
151 | PRKSCITCPQCHRSLILDDRGLRG | 1.94
152 | PRNSCIHCPQCHRSLILDDRGLRG | 3.11
153 | PRNSCLTCPQCHRSLILDDRGLRG | 2.26
154 | PRNSCITCPQCHISLILDDRGLRG | 1.95
155 | PRNSCITCPQCHPSLILDDRGLRG | 1.97
156 | PRNSCITCPQCHRSLIQDDRGLRG | 2.25
157 | PRNSCITCPQCLRSLILDDRGLRG | 3.13
158 | PRNSCITCPQCHRSYILDDRGLRG | 2.79
159 | PRNSCITCPQCHRSLILDDRGLRP | 2.03
160 | PRNSCITCPQCHRNLILDDRGLRG | 1.9
161 | YRNSCITCPQCHRSLILDDRGLRG | 2.04
162 | PRNSCITCPQCHRSLILDDRGLRY | 1.84
163 | PRNSCITCPQCHRSLILADRGLRG | 2.31
164 | PRNSCITCPQCHRSLILDIRGLRG | 1.75
165 | PRNSCITCPQCHRSLILDDMGLRG | 2.21
166 | PRNSCITCPICHRSLILDDRGLRG | 2.05
167 | PRNSCITCPQCHRSLILDDRGDRG | 3.81
168 | PANSCITCPQCHRSLILDDRGLRG | 1.58

Row | Variant | protein stability index
169 | PRNSCITVPQCHRSLILDDRGLRG | 2.47
170 | PRNSCITCPQCHRSLILDYRGLRG | 1.7
171 | PRNSCITCPRCHRSLILDDRGLRG | 2.36
172 | PRNSCITCPQCHRTLILDDRGLRG | 2.71
173 | PHNSCITCPQCHRSLILDDRGLRG | 2.29
174 | PRNSCSTCPQCHRSLILDDRGLRG | 2.02
175 | PRNSCITFPQCHRSLILDDRGLRG | 1.57
176 | PRNSCITCPQCHRSLIYDDRGLRG | 2.11
177 | PSNSCITCPQCHRSLILDDRGLRG | 1.94
178 | PRNSCITCPQWHRSLILDDRGLRG | 3.38
179 | PRNSCITCPACHRSLILDDRGLRG | 2.37
180 | PRNSCIFCPQCHRSLILDDRGLRG | 1.84
181 | PRSSCITCPQCHRSLILDDRGLRG | 2.5
182 | PRNSCITCPNCHRSLILDDRGLRG | 2.47
183 | PRNSCITCPQCHRSLILDDRHLRG | 2.11
184 | PRNSCITCPKCHRSLILDDRGLRG | 2.25
185 | NRNSCITCPQCHRSLILDDRGLRG | 2.16
186 | PRNSCITCPQHHRSLILDDRGLRG | 2.51
187 | PGNSCITCPQCHRSLILDDRGLRG | 2.82
188 | PRNSCITCPQCHRSLILDDRMLRG | 2.8
